This series in a line: soluble on expression in E. coli; label from the status in PepcDB or PDB records.
“MHHFSTGSSSAIIASSSSSSSSSNGYGHSPRDLLTGAAVANGGGGGFGGVAGVAFATTSPPTPVNLDVQRIDCTDETTVVMVKLTDEMFAALQESQRSGKPLRINVNDKEGRVEIGDGTASSKTNNTFYFQKQTVPEQTDTLVHSGGGVRNVGTYKTKYQIQATDRSFQETKKRAELRAEVEKSRGTKQMKKSGVTSSSSRYHNSSNSTPRSMNSAPNSSRVSPSFMSSSSSKASTSHVTTNNSKGTPNNGSESKKIDMTPQLMKHSIKKRIIHLIVTQKYSNWEEVYKKLKSDGLPEEKDEIEKIRSCVEEVSETRPEMSVMSLRTSFLSEVDQRWMFFNQEEKSHVRRLCNSGSRVGPTDNNFAPLRKKGMERITASSKTEKDKVKEKLEEAAKIPSPPKDQKSLPSIVEEDDYYTAPPEPANKRRAHNLAPPPPPPVQVVTPQTTSSQTETGPLPPKRTKRPESSSPQLERSSQPASKLNPIKLAATIAMQPIPKCDPPPPPPSRDTYHHNVASVAVNGGGSTASSRVSSPASSLSSPSQPSCNWEKQFGDIKTLSEAEAYFKQFHKEYPLYMECHEMLTKVSSEFRGLEVKLLTAVALSKTSPSPQNMQNVKQIEKNIQNRYAHFEKDPEFMKARQRHTDLRSKLNVLKTRIGSWEKMRRQSSTNV”: the “soluble on expression in E. coli” value is given as “soluble”.
To “QAMKELSKSDRTRQFIIESTAPVFNVKGLAGTSLTDLTEATNLTKGSIYGNFENKEAVAIAAFDYNWGHVKSVLTAKVQACNTYKEMLLVYSSMYNDADGSLFPVGGCPLLNTTIEADDTHDALRKKAGEAILSWKKNLVTIIKKGIQAKEFRPDTDVTKIAFSMIALVEGAILIHRATKNRAYSDYVFESLEDLIAGIEVKKK” belongs “soluble”; to “MEHNQEIMEQFLKLLSENGRAGQSEDLSRLLFYMDGMNRQLDAVRQELQTVKVQLAQAQDTPQKTVLQGMVDGLQSKVRQAQEKLDSLREKIMQCAANAVESFKRVGVTALDKAVSAMGIHKTLEAVQQNISGSLDDARKSIKKVETLGHELRSVGGHLKNAGRAVAGRETQAVDGGQEGRFQAAFLAPMRTAYKMLSSMNNTTLAAIGNVERLETAAEAVREAKKPPVRQTETQEKEQVKELEHKEEPTETQRREKPSIRQTLTEKSEPMDVSDILSDPANIQIFDTVLEESCRQWCDCIGDAPERASGKGFASFFYEVFEQKEQEYKAELKADTRSEKPSIRKALNEKKAEAAARPSPEPERKAPEAAR”, “not soluble”.
As for “MRKCRCLKLRNVKLINIRRIAVMMRSSKMASERSTDVQAFIGELDGGVFETKIGAVLSEVASGVMNTKTKGKVSLNLEIEPFDENRLKIKHKLSYVRPTNRGKISEEDTTETPMYVNRGGRLTILQEDQGQLLTLAGEPDGKLRAAGHMAGDPLEHHHHHH”, the “soluble on expression in E. coli” value is on record as “soluble”.
“MASAHQTPADANGGESRDEILRAAAELFMEFGYAATSIDAVAQRLGSTKGRIYHHYRSKADLFFDVQVTAMNRLTAQVEPLAREGGGAVGRLAAMALRHTQILLKEMPMQKVAVQGLERHLLEASSAAKRLRAVVKMRDDYEQMFVEVIDDGIREGSFVDLPPRLLSKPFFGALNWATVWYSQRRLQSEEAIDDIAHALAAYALRGLLKDSNDEAARETALFRYDLG”: the “soluble on expression in E. coli” value was “not soluble”.
The same measure for “PYNKNGFKVGMKLEGVDPEHQSVYCVLTVAEVCGYRIKLHFDGYSDCYDFWVNADALDIHPVGWCEKTGHKLHPPKGYKEEEFNWQTYLKTCKAQAAPKSLFENQNITVIPSGF”: “soluble”; for “METRTAENTAIFMCKCCNLFSPNQSELVTHVSEKHGEEGVNVDDVIIPLRPLNTPENPNPSKGGDEFLVMKRKRGRPKGSTKKPSTEEEVVENLVSPSEDGPLATEEGSRLAPSSLECSKCCRKFSNTRQLRKHICIIVLNLGEEDGDAGNESDLDLEKTYKEDDREKASKRPRAQKTEKVQKISGKEAGQLSGAKKPIISVVLTAHEAIPGATKIIPVEAGPPETGAPPPETTAADLVPRRGYQEYAIQQTPYEQPMKSSRLGPTQLKIFTCEYCNKVFKFKHSLQAHLRIHTNEKPYKCSQCSYASAIKANLNVHLRKHTGEKFACDYCSFTCLSKGHLKVHIERVHKKIKQHCRFCKKKYSDVKNLIKHIRDMHDPQDKKVKEALDELRLMTREGKRQLLYDCHICERKFKNELDRDRHMLVHGDKWPFACELCGHGATKYQALELHVRKHPFVYVCALCLKKFVSSIRLRSHIREVHGAAQETLVFTSSINQSFCLLEPGGDIQQEALGDQLQLAAEEFVCPEIDVRKEEACPGEAQPEVGLRELVVPGDAHAPPPGPLATPQSESSSLSPCKLETTVVSSDLNSLGVVSDDFLLKSDTSSAEPPAAAEATSDTQHRDSAQTQGEEVTLLLAKAKSAGPDPESSPGGRQKVGALPASESDSSTCLRANPTEASDLLPTVTDGGDLGVCQPDSCTPSSEHHPGSTAFMKVLDSLQKKQMNTSLCERIRKVYGDLECEYCGKLFWYQVHFDMHVRTHTREHLYYCSQCHYSSITKNCLKRHVIQKHSNILLKCPTDGCDYSTPDKYKLQAHLKVHTELDKRSYSCPVCEKSFSEDRLIKSHIKTNHPEVSMNTISEVLGRRVQLKGLIGKRAMKCPYCDFYFMKNGSDLQRHIWAHEGVKPFKCSLCEYATRSKSNLKAHMNRHSTEKTHLCDMCGKKFKSKGTLKSHKLLHTSDGKQFKCTVCDYTAAQKPQLLRHMEQHASFKPFRCAHCHYSCNISGSLKRHYNRKHPNEEYTNVGSGELAAEALIQQGGLKCPVCSFVYGTKWEFNRHLKNKHGLKVVEIDGDPKWEPAAETPEEPSTQYLYITEAEDVQGTQAAVAALQDLRYTSESGDRLDPTAVNILQQIIELGSETHDAAAVASVVAMAPGTVTVVKQVTDEEPSSNHTVMIQETLQQASVELAEQHHLVVSSDDVEGIETVTVYTQGGEASEFIVYVQEAVQPVEEQVGEQPAPEL”: “soluble”.
Take “MNITDLKPTKVWKFFHEITQVPRPSKKEEKILAYLVKFAEDRNLKYRTDEVGNLVIEKPATPGYEHLETVILQSHMDMVCEKNADKVHDFENDPIRTIIDGEWLHADGTTLGADNGIGCAAELAILDSDDIEHGPIECLFTMDEETGMTGAMNLKPGFFNGKILLNLDSEDEGELFIGCAGGMGTMVEFAYEKREATDDYLYFEVKVSGLKGGHSGGEIHIGLGNANKILTRYLYALEHELDWKLCSFQGGNLHNAIPREAHAVIGLKADQKERARVILNELAAAVEDELKRVDPGVKLEMKSVGKPAYRIDCDTKRRLVRALYACPHGVYGMSHDIEGLVETSSNLASVKMKEDDKIYVETSQRSSTSSLISDIANTVASVFELADAKISFRDPYPGWKPNPDSPILKAASESYERIFGRKPAIKAIHAGLECGLFLDKYPYLDMVSFGPTLRDVHSPVEKIEIKTVQLWWDHLVDILKHIPAAK”: the “soluble on expression in E. coli” value is reported as “not soluble”.
On to “MSPQVSIVIPNHDYGRYLDACLDSLAAQTLPVQRMEVIVVDDASGDDSLERAARWQACHPWKAFTVVPLSRVGRPGPVRNAGLRRAQAALMLCLDPDDTLAPEALVRMVEALDNAPHAHVASSDYFEHRGEHIRRVNIPDDDSNVLPTQNPCHSASLFRREVWEATGGYTAATAYEDWDFWVRAASCGMRRVRVPYPLVHYRLRDDGFWVGASADDAKAKAAIVRRTPAFFAPEVRGWAVAILRGETWMPAFPRGVIPTAEALRAFRDDCMARLGPQADSLFTALPGWPRKTGESSRSGETGQSGLEHHHHHH”, for which the “soluble on expression in E. coli” value is “not soluble”.
For “MMEERANLMHMMKLSIKVLLQSALSLGRSLDADHAPLQQFFVVMEHCLKHGLKVKKSFIGQNKSFFGPLELVEKLCPEASDIATSVRNLPELKTAVGRGRAWLYLALMQKKLADYLKVLIDNKHLLSEFYEPEALMMEEEGMVIVGLLVGLNVLDANLCLKGEDLDSQVGVIDFSLYLKDVQDLDGGKEHERITDVLDQKNYVEELNRHLSCTVGDLQTKIDGLEKTNSKLQEELSAATDRICSLQEEQQQLREQNELIRERSEKSVEITKQDTKVELETYKQTRQGLDEMYSDVWKQLKEEKKVRLELEKELELQIGMKTEMEIAMKLLEKDTHEKQDTLVALRQQLEEVKAINLQMFHKAQNAESSLQQKNEAITSFEGKTNQVMSSMKQMEERLQHSERARQGAEERSHKLQQELGGRIGALQLQLSQLHEQCSSLEKELKSEKEQRQALQRELQHEKDTSSLLRMELQQVEGLKKELRELQDEKAELQKICEEQEQALQEMGLHLSQSKLKMEDIKEVNQALKGHAWLKDDEATHCRQCEKEFSISRRKHHCRNCGHIFCNTCSSNELALPSYPKPVRVCDSCHTLLLQRCSSTAS”, the “soluble on expression in E. coli” value is listed as “soluble”.
The same measure for “MNKFGAEKIFIEKQSGATITHRPIFQEALDFVRAQDIFIVEAIDRLGRNYDEIIDSVNYLKKKNVRLIITSLPIMAEAIGNPLLDKFIKDLIIQILAMIAEQERTESKRRQAQGIKIAKANGVYKGRPKLYSADTKDPQRRLVYKSIVQDLKNGVAISKIAKDYNITRQTIYRIKKEIHELEIN”: “not soluble”; for “MGSDKIHHHHHHMRVNMYLSRQIQPLVSRLLKQFPAVLVTGARQVGKSTLLKHIAKDYAYLTFDDPLLLEQAKQEPRLFFLNHAGNVILDEVQYAQELFSLLKLEIDKQQKNGMFLLSGSQAFELMQNVSETLAGRIAILKLQGLSLREILNVEFYLPFIPSRDYLASREKMLKSPENIWQIIHKGDMPRLYQQETDWEIYYSSYVSTYIERDVRQLTNITNTTDFTRFMVALASRSGELLNYSNVAQEVGVSNETIKRWTAILQTSGIIYLLQPYSNNHLKRTIKTPKIYFLNTGLMAYLTKWLTPETISKGAKSGQFFESFVVSEIIKSFTNNGIEPPLYFYRNTNQKEIDLIIEYDRTIYPIEIKTTANPNKKMAKSFALLNSLGKESTIGLGVIINQYPNKHYLAENLVALPVRYL”: “not soluble”.
The same measure for “MGSDKIHHHHHHMKQLPLDIIPPPPTLSNFVTGRNAELLQTLDNLLMMRKHERFVYIWGGTGCGKSHLLQGVASACKRNDMNTLYFACGERTSFANGSEADCVMVDDVDRLGADAQIGLFHLYNRIRDEGQAFLLVSGSVAPTQLKLRADLLTRLAWGLVYEVHELTDEEKMEAMKSHASSRGLALPQEVCDYLLRHERRDLTSLMAKLNALDKYSLASHRKITVPLVRELLQAAS”: “not soluble”.
The same measure for “PVLIVTPLEDQQVFVGDRVEMAVEVSEEGAQVMWMKNGVELTREDSFKARYRFKKDGKRHILIFSDVVQEDRGRYQVITNGGQCEAELIVEEKQ”: “soluble”; for “AMSKIICLTAGHSNTDPGAVNGSDREADLAQDMRNIVASILRNDYGLTVKTDGTGKGNMPLRDAVKLIRGSDVAIEFHTNAAANKTATGIEALSTPKNKRWCQVLGKAVAKKTGWKLRGEDGFKPDNAGQHSRLAYAQAGGIVFEPFFISNDTDLALFKTTKWGICRAIADAIAMELGAAKV”: “soluble”.
For the sequence “MALNGTPALNVNWHGNYDVIVLGFGGAGASAARFAADNGAHVLVVDAAPFGREGGNTRYSAQHVVTGESLDKLTAYYQALGAPFSTPTKTLNAYLSGMSKIPAYFEKYLGIKAVSWKHDIKPGDAVAIKKTMAEYPELAGSDTIDFALVHKRDKDAALWKLLRQKVLERADNIDVWLDSRAQHLIQDPNTKVIQGVQIKRGERLLNIHANNGVVLAMGGFENNPELKQTYLHSDNLTPLGTLYNRGDGIKMAQEVDAKMWHMTNYESHGILPGLEHHHHHH”, the “soluble on expression in E. coli” value is “not soluble”.
In the case of “MSLNYEMFAKLYDRLMADAPYDRWAKLVEEEIRKAIFSDVNLLDIGCGTGRLLKILSERGYACTGVDQSANMLVIAREALAQKGVQVPLFQQDMTEFYTGETYQVITIFCDSLNYVITEEGVVQTFQRVFDHLDQQGVFMFDVHSPTKLRNHFIGKTFADADEEISYIWQSFAGEAEQSVEHELTFFVRNETGSYDRYEELHIQRGYPIERYVDWLKEAGFSRIDITADFTNEAPTENSERIFFKAYKKEGHHHHHH”, the “soluble on expression in E. coli” value is reported as “soluble”.

For the origin of these results see the DeepSol protein solubility set.
